Test results reported in patent US20140134177A1 (ONCOMED PHARMACEUTICALS, published 2014).

B1: FZD8-Fc (Fc fusion, UniProt Q9H461 28-158, looked up)
chain: ASAKELACQEITVPLCKGIGYNYTYMPNQFNHDTQDEAGLEVHQFWPLVEIQCSPDLKFFLCSMYTPICLEDYKKPLPPCRSVCERAKAGCAPLMRQYGFAWPDRMRCDRLPEQGNPDTLCMDYNRTDLTT
notes: also called soluble FZD8; FZD1-10-Fc; not shown: Fc
B2: FZD4-Fc (Fc fusion, UniProt Q9ULV1 40-170, looked up)
chain: EEERRCDPIRISMCQNLGYNVTKMPNLVGHELQTDAELQLTTFTPLIQYGCSSQLQFFLCSVYVPMCTEKINIPIGPCGGMCLSVKRRCEPVLKEFGFAWPESLNCSKFPPQNDHNHMCMEGPGDEEVPLP
notes: also called FZD1-10-Fc; FZD-Fc constructs; not shown: Fc
B3: FZD9-Fc (Fc fusion, UniProt O00144 23-159, looked up)
chain: LEIGRFDPERGRGAAPCQAVEIPMCRGIGYNLTRMPNLLGHTSQGEAAAELAEFAPLVQYGCHSHLRFFLCSLYAPMCTDQVSTPIPACRPMCEQARLRCAPIMEQFNFGWPDSLDCARLPTRNDPHALCMEAPENA
notes: as for B2
B4: RSPO1-CD4TM (ligand)
chain: SRGIKGKRQRRISAEGSQACAKGCELCSEVNGCLKCSPKLFILLERNDIRQVGVCLPSCPPGYFDARNPDMNKCIKCKIEHCEACFSHNFCTKCKEGLYLHKGRCYPACPEGSSAANGTMECSSPAQCEMSEWSPWGPCSKKQQLCGFRRGSEERTRRVLHAPVGDHAACSDTKETRRCTVRRVPCPEGQKRRKGGQGRRENANRNLARKESKEAGAGSRRRKGQQQQQQQGTVGPLTSAGPAMALIVLGGVAGLLLFIGLGIFF
notes: domain: transmembrane domain; also called cell-surface RSPO1; RSPO1 transfected cells
B5: FZD3-Fc (Fc fusion, UniProt Q9NPG1 23-143, looked up)
chain: HSLFSCEPITLRMCQDLPYNTTFMPNLLNHYDQQTAALAMEPFHPMVNLDCSRDFRPFLCALYAPICMEYGRVTLPCRRLCQRAYSECSKLMEMFGVPWPEDMECSRFPDCDEPYPRLVDL
notes: as for B2
B6: FZD6-Fc (Fc fusion, UniProt O60353 19-146, looked up)
chain: HSLFTCEPITVPRCMKMAYNMTFFPNLMGHYDQSIAAVEMEHFLPLANLECSPNIETFLCKAFVPTCIEQIHVVPPCRKLCEKVYSDCKKLIDTFGIRWPEELECDRLQYCDETVPVTFDPHTEFLGP
notes: as for B2
B7: FZD10-Fc (Fc fusion, UniProt Q9ULW2 21-154, looked up)
chain: ISSMDMERPGDGKCQPIEIPMCKDIGYNMTRMPNLMGHENQREAAIQLHEFAPLVEYGCHGHLRFFLCSLYAPMCTEQVSTPIPACRVMCEQARLKCSPIMEQFNFKWPDSLDCRKLPNKNDPNYLCMEAPNNG
notes: also called soluble FZD10; FZD1-10-Fc; not shown: Fc
B8: FZD5-Fc (Fc fusion, UniProt Q13467 27-157, looked up)
chain: ASKAPVCQEITVPMCRGIGYNLTHMPNQFNHDTQDEAGLEVHQFWPLVEIQCSPDLRFFLCSMYTPICLPDYHKPLPPCRSVCERAKAGCSPLMRQYGFAWPERMSCDRLPVLGRDAEVLCMDYNRSEATT
notes: as for B2

Tests used:
[1] = molecular target: B4; test: FACS, Fc fusion on HEK 293 cells with RSPO1-CD4TM
Method: (§1) FIG. 7. RSPO1 Activates Beta-Catenin Signaling via Binding to LGR5. A) HEK 293 cells transiently transfected with RSPO1-CD4TM and GFP were incubated with LGR5-Fc, LRP6FL-Fc, LRP6E1-2-Fc, or FZD1-10-Fc as indicated. […] B) HEK 293 cells transiently transfected with […] and GFP were incubated in the presence of heparin with (in duplicate) RSPO1-Fc (top), FZD8-Fc (middle), or a FLAG antibody as a positive control (bottom). […] HEK 293 cells transiently transfected with FLAG-LGR5-CD4TM and GFP were incubated in the presence of heparin with RSPO1-Fc, RSPO2-Fc, RSPO3-Fc, RSPO4-Fc, FZD8-Fc, or a FLAG antibody as a positive control as indicated.
(§2) To determine the mechanism by which RSPO1 activates beta-catenin signaling, FACS analysis was used to assess binding between RSPO1 and LGR5. In certain embodiments, binding between soluble LGR5 and cell-surface RSPO1 was determined. A cell-surface RSPO1 protein was generated by ligating full-length human RSPO1 to the transmembrane domain of CD4 using standard recombinant DNA techniques (RSPO1-CD4TM). HEK 293 cells were transiently transfected RSPO1-CD4TM and GFP. After 48 hours, cells were suspended in ice cold PBS containing 2% FCS and then incubated on ice in the presence of LGR5-Fc, LRP6-ECD-Fc (containing the extracellular domain of human LRP6 fused to an Fc domain), LRP6E1-2-Fc (containing amino acids 1-629 of human LRP6 fused to an Fc domain), or various FZD-Fc constructs, including FZD1-10. […] Only a weak interaction between RSPO1 and the WNT co-receptor LRP6 was detected.

[2] = molecular target: T1, FLAG-LGR5-CD4TM (human, UniProt P01730 397-418, limits assumed); test: FACS, Fc fusion on HEK 293 cells with FLAG-LGR5-CD4TM, with heparin
T1 construct: domain: transmembrane domain; also called cell-surface LGR5; LGR5 transfected cells; not shown: N-terminal FLAG tag
Method: In certain embodiments, binding between soluble RSPO1 and cell-surface LGR5 was determined. A variant cell-surface LGR5 protein was generated by ligating amino acids 22-564 of LGR5 to an N-terminal FLAG tag and to the transmembrane domain of CD4 using standard recombinant DNA techniques (FLAG-LGR5-CD4TM). HEK 293 cells were transiently transfected with FLAG-LGR5-CD4TM and GFP. After 48 hours, cells were suspended in ice cold PBS containing 2% FCS and heparin and then incubated on ice in the presence of RSPO1-Fc, FZD8-Fc, or a FLAG antibody as a positive control.

[3] = molecular target: FZD7-Fc (UniProt O75084 33-170); test: FACS, Fc fusion on HEK 293 cells with RSPO1-CD4TM
Method: as §1, §2

[4] = molecular target: FZD2-Fc (UniProt Q14332 24-159); test: FACS, Fc fusion on HEK 293 cells with RSPO1-CD4TM
Method: as §1, §2

[5] = molecular target: T2, FZD1-Fc (UniProt Q9UP38 87-237); test: FACS, Fc fusion on HEK 293 cells with RSPO1-CD4TM
T2 construct: also called FZD1-10-Fc; FZD-Fc constructs; not shown: Fc
Method: as §1, §2

Row | binding result [1] | Binder | also measured
1 | no binding | B1 | binding result [2]: no binding
2 | no binding | B2 | 
3 | no binding | B3 | 
4 |  | B4 | binding result [3]: no binding; binding result [4]: no binding; binding result [5]: no binding
5 | no binding | B5 | 
6 | no binding | B6 | 
7 | no binding | B7 | 
8 | no binding | B8 | 
